Test results published in the supplement of paper PMC10567573.

B1: KRT33B (parent)
chain: YQSYFKTIEELQQKILCSKSENAR
B2: OAS1 (parent)
chain: YIGTHEYPHFSHRPSTLQAASTPQ

Variants of: B1
Assay: protein stability index of a GFP-peptide fusion (GPS, HEK-293T) (PSI 1-6); higher = more stable
Settings: c terminus: a fixed tail appended
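Also: lentivirally expressed fusions sorted by FACS into six bins by GFP to DsRed ratio, PSI derived from sequencing read proportions per bin multiplied by bin number.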

First: YQSYFKTIEELQQKILCSKSENAV [R24V]
Second: YQSYFKTIEELQQKILCSKSENAN [R24N]
The protein stability index of the first is lower: 1.98 for the first, 2.02 for the second.

Going from YQSYFKTIEELQQKILCSKSENAP [R24P] to YQSYFKTIEELQQKILCSKSENAY [R24Y], the protein stability index falls from 2.13 to 1.3.

Going from YQSYFKTIEELQQKILCSKSENAL [R24L] to YQSYFKTIEELQQKILCSKSENAQ [R24Q], the protein stability index rises from 2.15 to 2.34.

Compared with YQSYFKTIEELQQKILCSKSENAT [R24T], YQSYFKTIEELQQKILCSKSENAW [R24W] is lower in protein stability index: 1.76 for the first, 1.15 for the second.

Compared with YQSYFKTIEELQQKILCSKSENAS [R24S], YQSYFKTIEELQQKILCSKSENAM [R24M] is lower in protein stability index: 2.07 for the first, 1.92 for the second.

Variants of: B2
Assay: as above
Settings: c terminus: a fixed tail appended

First: YIGTHEYPHFSHRPSTLQAASTDQ [P23D]
Second: YIGTHEYPHFSHRPSTLQAASTTQ [P23T]
The protein stability index of the first is lower: 2.15 for the first, 2.48 for the second.

Compared with YIGTHEYPHFSHRPSTLQAASTLQ [P23L], YIGTHEYPHFSHRPSTLQAASTWQ [P23W] is higher in protein stability index: 1.73 for the first, 1.97 for the second.

Going from YIGTHEYPHFSHRPSTLQAASTHQ [P23H] to YIGTHEYPHFSHRPSTLQAASTRQ [P23R], the protein stability index falls from 2.4 to 1.86.

Going from YIGTHEYPHFSHRPSTLQAASTKQ [P23K] to YIGTHEYPHFSHRPSTLQAASTSQ [P23S], the protein stability index rises from 1.91 to 2.27.

First: YIGTHEYPHFSHRPSTLQAASTMQ [P23M]
Second: YIGTHEYPHFSHRPSTLQAASTQQ [P23Q]
The protein stability index of the first is lower: 1.89 for the first, 2.23 for the second.

Compared with YIGTHEYPHFSHRPSTLQAASTCQ [P23C], YKGTHEYPHFSHRPSTLQAASTPQ [I2K] is higher in protein stability index: 1.88 for the first, 3.47 for the second.

First: YHGTHEYPHFSHRPSTLQAASTPQ [I2H]
Second: YDGTHEYPHFSHRPSTLQAASTPQ [I2D]
The protein stability index of the first is lower: 1.44 for the first, 3.48 for the second.

Compared with YLGTHEYPHFSHRPSTLQAASTPQ [I2L], YFGTHEYPHFSHRPSTLQAASTPQ [I2F] is lower in protein stability index: 2.73 for the first, 2.67 for the second.

Compared with YEGTHEYPHFSHRPSTLQAASTPQ [I2E], YRGTHEYPHFSHRPSTLQAASTPQ [I2R] is lower in protein stability index: 4.18 for the first, 3.68 for the second.

YIGTHEYPHKSHRPSTLQAASTPQ [F10K] and YIGTHEYPHMSHRPSTLQAASTPQ [F10M] are the same in protein stability index: 2.73 for the first, 2.73 for the second.

Going from YIGTHEYPHSSHRPSTLQAASTPQ [F10S] to YIGTHEYPHYSHRPSTLQAASTPQ [F10Y], the protein stability index falls from 2.9 to 1.79.

First: YIGTHEYPHASHRPSTLQAASTPQ [F10A]
Second: YIGTHEYPHWSHRPSTLQAASTPQ [F10W]
The protein stability index of the first is higher: 2.57 for the first, 1.89 for the second.

First: YIGTHEYPHESHRPSTLQAASTPQ [F10E]
Second: YIGTHEYPHLSHRPSTLQAASTPQ [F10L]
The protein stability index of the first is higher: 3.25 for the first, 2.53 for the second.

Compared with YIGTHEYPHHSHRPSTLQAASTPQ [F10H], YIGTHEYPHQSHRPSTLQAASTPQ [F10Q] is lower in protein stability index: 2.56 for the first, 2.41 for the second.

Compared with YIGTHEYPHVSHRPSTLQAASTPQ [F10V], YIGTHEYPHFSHMPSTLQAASTPQ [R13M] is higher in protein stability index: 2.12 for the first, 2.19 for the second.

First: YIGTHEYPHFSHSPSTLQAASTPQ [R13S]
Second: YIGTHEYPHFSHTPSTLQAASTPQ [R13T]
The protein stability index of the first is higher: 2.18 for the first, 1.79 for the second.

Compared with YIGTHEYPHFSHCPSTLQAASTPQ [R13C], YIGTHEYPHFSHQPSTLQAASTPQ [R13Q] is higher in protein stability index: 1.26 for the first, 1.99 for the second.

Compared with YIGTHEYPHFSHAPSTLQAASTPQ [R13A], YIGTHEYPHFSHFPSTLQAASTPQ [R13F] is lower in protein stability index: 2.58 for the first, 1.33 for the second.

First: YIGTHFYPHFSHRPSTLQAASTPQ [E6F]
Second: YIGTHWYPHFSHRPSTLQAASTPQ [E6W]
The protein stability index of the first is higher: 3.8 for the first, 3.29 for the second.

First: YIGTHHYPHFSHRPSTLQAASTPQ [E6H]
Second: YIGTHKYPHFSHRPSTLQAASTPQ [E6K]
The protein stability index of the first is higher: 2.32 for the first, 2.06 for the second.

Compared with YIGTHDYPHFSHRPSTLQAASTPQ [E6D], YIGTHSYPHFSHRPSTLQAASTPQ [E6S] is lower in protein stability index: 1.92 for the first, 1.79 for the second.

First: YIGTHPYPHFSHRPSTLQAASTPQ [E6P]
Second: YIGTHIYPHFSHRPSTLQAASTPQ [E6I]
The protein stability index of the first is lower: 1.5 for the first, 1.75 for the second.

Going from YIGTHCYPHFSHRPSTLQAASTPQ [E6C] to YIETHEYPHFSHRPSTLQAASTPQ [G3E], the protein stability index falls from 2.26 to 1.8.

Going from YILTHEYPHFSHRPSTLQAASTPQ [G3L] to YITTHEYPHFSHRPSTLQAASTPQ [G3T], the protein stability index rises from 2.19 to 2.29.

First: YISTHEYPHFSHRPSTLQAASTPQ [G3S]
Second: YIPTHEYPHFSHRPSTLQAASTPQ [G3P]
The protein stability index of the first is lower: 2.03 for the first, 2.28 for the second.

Compared with YIWTHEYPHFSHRPSTLQAASTPQ [G3W], YIHTHEYPHFSHRPSTLQAASTPQ [G3H] is higher in protein stability index: 1.83 for the first, 1.89 for the second.

Going from YINTHEYPHFSHRPSTLQAASTPQ [G3N] to YIMTHEYPHFSHRPSTLQAASTPQ [G3M], the protein stability index falls from 2.3 to 1.86.

First: YIYTHEYPHFSHRPSTLQAASTPQ [G3Y]
Second: YIGTHENPHFSHRPSTLQAASTPQ [Y7N]
The protein stability index of the first is lower: 1.6 for the first, 2.15 for the second.

Going from YIGTHEDPHFSHRPSTLQAASTPQ [Y7D] to YIGTHESPHFSHRPSTLQAASTPQ [Y7S], the protein stability index falls from 3.16 to 2.55.

Compared with YIGTHEGPHFSHRPSTLQAASTPQ [Y7G], YIGTHEYPQFSHRPSTLQAASTPQ [H9Q] is higher in protein stability index: 1.98 for the first, 2.12 for the second.

First: YIGTHEYPDFSHRPSTLQAASTPQ [H9D]
Second: YIGTHEYPVFSHRPSTLQAASTPQ [H9V]
The protein stability index of the first is higher: 2.75 for the first, 1.78 for the second.

Going from YIGTHEYPLFSHRPSTLQAASTPQ [H9L] to YIGTHEYPRFSHRPSTLQAASTPQ [H9R], the protein stability index rises from 1.67 to 2.08.

Compared with YIGTHEYSHFSHRPSTLQAASTPQ [P8S], YIGTHEYMHFSHRPSTLQAASTPQ [P8M] is lower in protein stability index: 1.95 for the first, 1.91 for the second.

First: YIGTHEYIHFSHRPSTLQAASTPQ [P8I]
Second: YIGTHEYAHFSHRPSTLQAASTPQ [P8A]
The protein stability index of the first is higher: 2.02 for the first, 1.74 for the second.

Going from YIGTHEYNHFSHRPSTLQAASTPQ [P8N] to YIGTHEYGHFSHRPSTLQAASTPQ [P8G], the protein stability index falls from 2.05 to 1.39.

Compared with YIGTHEYPHFSHRPETLQAASTPQ [S15E], YIGTHEYPHFSHRPKTLQAASTPQ [S15K] is lower in protein stability index: 2.05 for the first, 1.82 for the second.

Going from YIGTHEYPHFSHRPHTLQAASTPQ [S15H] to YIGTHEYPHFSHRPFTLQAASTPQ [S15F], the protein stability index rises from 1.82 to 2.67.

First: YIGTHEYPHFSHRPLTLQAASTPQ [S15L]
Second: YIGTHEYPHFSHRPPTLQAASTPQ [S15P]
The protein stability index of the first is higher: 1.69 for the first, 1.62 for the second.

Going from YIGTHEYPHFSHRPVTLQAASTPQ [S15V] to YIGTHEYPHFSHRPCTLQAASTPQ [S15C], the protein stability index falls from 2 to 1.61.

Compared with YIGTHEYPHFSHRPSTLQHASTPQ [A19H], YIGTHEYPHFSHRPSTLQEASTPQ [A19E] is higher in protein stability index: 1.89 for the first, 2.58 for the second.

First: YIGTHEYPHFSHRPSTLQVASTPQ [A19V]
Second: YIGTHEYPHFSHRPSTLQIASTPQ [A19I]
The protein stability index of the first is lower: 1.81 for the first, 2.04 for the second.

Going from YIGTHEYPHFSHRPSTLQMASTPQ [A19M] to YIGTHEYPHFSHRPSSLQAASTPQ [T16S], the protein stability index rises from 2.15 to 2.34.
